Laboratory results from patent US20080274129A1 (BIOTECH SYNERGY, published 2008).
Non-standard residues stand in square brackets, D forms with d. No end group written: not given here. Aib = CC(C)(N)C(=O)O

How the values were obtained:
[1] = target: HLA-A2 supertype alleles; experiment: peptide binding to purified MHC molecules of the HLA-A2 supertype; count of alleles bound
[2] = target: T1, HLA-A2.1 molecule (purified) (human); experiment: peptide binding to purified HLA-A2.1 molecule
T1 construct: limits of the heavy chain and presence of b2m in the preparation are not described; also called HLA-A*0201; prototype HLA-A2.1 molecule

KL[Aib]PVQLWV (not fully specified) [p53.139L2B3]
No. A2 Alleles Crossbound [1]: 4 alleles

IMIGHLVGV (also called peptide 1352.02) [CEA.691H5]
binding result [2]: binds | No. A2 Alleles Crossbound [1]: 5 alleles

KVAEIVHFL (also called peptide 1352.03) [MAGE-3.112I5]
binding result [2]: binds | No. A2 Alleles Crossbound [1]: 5 alleles
